Data: patent publication US11180770B2, “HPPD variants and methods of use” (BASF Agricultural Solutions Seed US LLC, priority 2017, dated 2021)

How the values were obtained:
[1] = tested on: soybean shoots; test: selection of soybean shoots with tembotrione (greening/bleaching); assay type: in vivo; settings: wild-type soybean shoots treated with tembotrione as selection marker
Excerpt: Soybean transformation was achieved by using methods well known in the art, such as the one described using the Agrobacterium tumefaciens mediated transformation soybean half-seed explants using essentially the method described by Paz et al. (2006), Plant cell Rep. 25:206. Transformants were identified by using the HPPD inhibitor herbicide “tembotrione” as selection marker. The appearance of green shoots was observed, and documented as an indicator of tolerance to the HPPD inhibitor herbicide tembotrione.

[2] = tested on: HPPD polypeptides; test: coupled HPPD activity assay: turnover and residual turnover in crude extracts; assay type: biochemical, Pseudomonas fluorescens; settings: FIG. 2
[3] = tested on: HPPD polypeptides; test: as above; assay type: biochemical, Pseudomonas fluorescens; settings: for turnover / residual turnover in the presence of Cmpd. 1 compared with a reference HPPD polypeptide, in words: comparison with the reference or parent polypeptide
[4] = tested on: T0 soybean plants; test: greenhouse spray test, leaf area damage score; assay type: in vivo; settings: transgenic soybean T0 events, five days after Cmpd. 1 at 300 g AI/ha; for leaf area damage score, 25th percentile: scale 0 (no damage) to 100 (complete bleaching); for leaf area damage score, 75th percentile / leaf area damage score, 90th percentile / leaf area damage score, Median: scale 0-100
Excerpt: Tolerant green shoots were transferred to rooting media or grafted. Rooted plantlets were transferred to the greenhouse after an acclimation period. Plants containing the transgene were then sprayed with HPPD inhibitor herbicides, as for example with mesotrione at a rate of 300-600 g AI/ha, or with Cmpd. 1 (2-chloro-3-(methylsulfanyl)-N-(1-methyl-1H-tetrazol-5-yl)-4-(trifluoromethyl)-benzamide) at a rate of 150 g-300 g AI/ha supplemented with ammonium sulfate and methyl ester rapeseed oil. Five to ten days after the application, the symptoms due to the application of the herbicide were evaluated and compared to the symptoms observed on wild-type plants under the same conditions. For example, T0 soybean plants having a “plant expression cassette”, which includes an HPPD inhibitor tolerant HPPD polypeptide of the present invention, were tested towards the tolerance of Cmpd. 1. Prior greenhouse trials with the transgenic plants, soybean transformants were routinely analyzed for the expression and presence of the transgenes using the ELISA protein detection method (see detailed description under item D and H). Only plants recovering in the selection media and having a detectable HPPD transgene protein expression were used for the herbicide tolerance analysis. A DeVries Tracker Sprayer was calibrated prior to each spraying. The chemical formulation used for Cmpd. 1 was supplemented with ammonium sulfate and methylated rape seed oil. Spray tests were conducted with a concentration, which equals to 300 grams AI per hectare (300 g AI/ha).
In greenhouse trials, independent T0 soybean events containing an exemplary mutant HPPD polypeptide were sprayed with the HPPD inhibitor herbicide Cmpd. 1 (2-chloro-3-(methylsulfanyl)-N-(1-methyl-1H-tetrazol-5-yl)-4-(trifluoromethyl)benzamide) at the rate of 300 grams AI/ha, supplemented with ammonium sulfate and methyl ester rapeseed oil. Five days after the application, the leaf damaged area due to the HPPD inhibitor herbicide is scored in a scale from 0 (no damage) to 100 (complete bleaching). Under those conditions, the wild-type plants were completely bleached and their damage scores were in the 95-100 range.
Table 5 presents the distribution of the HPPD inhibitor herbicide damage score data as percentile for exemplary mutant HPPD inhibitor herbicide tolerant polypeptides (SEQ ID NOs). The percentiles normalize ranks of the damage score from an individual plant in a population. […] The median is the 50th percentile. Half the values had higher damage scores; half had lower damage scores. The value of the 75th and 90th percentile is the damage score where 75% and 90% of the soybean events had lower damage scores, respectively. The difference between the 75th and 25th percentile is called the interquartile range and a marker to quantify scattering in the population. All constructs had only one single cassette insertion in the soybean genome.

Molecule	effect on wild-type soybean shoots [1]	mode of inhibition by HPPD inhibitor herbicides (time-course of inhibition) [2]	Residual turnover ([3]; presence of 100 μM Cmpd. 1, high substrate concentration, changes in absorbance (OD) at 320 nm)	turnover / residual turnover in the presence of Cmpd. 1 compared with a reference HPPD polypeptide, in words [3]	leaf area damage score, 25th percentile [4]	leaf area damage score, 75th percentile [4]	leaf area damage score, 90th percentile [4]	leaf area damage score, Median [4]
CS(=O)(=O)c1ccc(C(=O)C2C(=O)CCCC2=O)c(Cl)c1COCC(F)(F)F [tembotrione, 2-[2-chloro-4-(methylsulfonyl)-3-[(2,2,2,-trifluoroethoxy)methyl]benzoyl]-1,3-cyclohexanedione]	entirely bleached							
SEQ ID NO:1 (protein, listed as Pseudomonas fluorescens, 4-hydroxyphenylpyruvate dioxygenase (HPPD; Pseudomonas fluorescens) (1)..(358)) MADLYENPMGLMGFEFIEFASPTPGTLEPIFEIMGFTKVATHRSKNVHLYRQGEINLILNNEPNSIASYFAAEHGPSVCGMAFRVKDSQKAYNRALELGAQPIHIDTGPMELNLPAIKGIGGAPLYLIDRFGEGSSIYDIDFVYLEGVERNPVGAGLKVIDHLTHNVYRGRMVYWANFYEKLFNFREARYFDIKGEYTGLTSKAMSAPDGMIRIPLNEESSKGAGQIEEFLMQFNGEGIQHVAFLTDDLVKTWDALKKIGMRFMTAPPDTYYEMLEGRLPDHGEPVDQLQARGILLDGSSVEGDKRLLLQIFSETLMGPVFFEFIQRKGDDGFGEGNFKALFESIERDQVRRGVLTAD		slow and tight binding inhibitor	0.021					
SEQ ID NO: 69: mutant PfHPPD: 268A 270S 315R 335P 336H 337S 340V 344Q 345M (protein, mutant HPPD polypeptide, mutant PfHPPD: 268A 270S 315R 335P 336H 337S 340V 344Q 345M) MADLYENPMGLMGFEFIEFASPTPGTLEPIFEIMGFTKVATHRSKNVHLYRQGEINLILNNEPNSIASYFAAEHGPSVCGMAFRVKDSQKAYNRALELGAQPIHIDTGPMELNLPAIKGIGGAPLYLIDRFGEGSSIYDIDFVYLEGVERNPVGAGLKVIDHLTHNVYRGRMVYWANFYEKLFNFREARYFDIKGEYTGLTSKAMSAPDGMIRIPLNEESSKGAGQIEEFLMQFNGEGIQHVAFLTDDLVKTWDALKKIGMRFMTAPADSYYEMLEGRLPDHGEPVDQLQARGILLDGSSVEGDKRLLLQIFSERLMGPVFFEFIQRKGDDGFGPHSFKVLFEQMERDQVRRGVLTAD				increase significantly the turnover and the residual turnover	20.0	25.0	42.0	20.0
SEQ ID NO: 68: mutant PfHPPD: 268A 270S 315Q 335P 336H 337S 340V 344Q 345M (protein, mutant HPPD polypeptide, mutant PfHPPD: 268A 270S 315Q 335P 336H 337S 340V 344Q 345M) MADLYENPMGLMGFEFIEFASPTPGTLEPIFEIMGFTKVATHRSKNVHLYRQGEINLILNNEPNSIASYFAAEHGPSVCGMAFRVKDSQKAYNRALELGAQPIHIDTGPMELNLPAIKGIGGAPLYLIDRFGEGSSIYDIDFVYLEGVERNPVGAGLKVIDHLTHNVYRGRMVYWANFYEKLFNFREARYFDIKGEYTGLTSKAMSAPDGMIRIPLNEESSKGAGQIEEFLMQFNGEGIQHVAFLTDDLVKTWDALKKIGMRFMTAPADSYYEMLEGRLPDHGEPVDQLQARGILLDGSSVEGDKRLLLQIFSEQLMGPVFFEFIQRKGDDGFGPHSFKVLFEQMERDQVRRGVLTAD				increase significantly the turnover and the residual turnover	5.0	16.3	20.0	10.0
SEQ ID NO: 70: mutant PfHPPD: 213K 268A 270S 315Q 335P 336H 337S 340V 344Q 345M (protein, mutant HPPD polypeptide, mutant PfHPPD: 213K 268A 270S 315Q 335P 336H 337S 340V 344Q 345M) MADLYENPMGLMGFEFIEFASPTPGTLEPIFEIMGFTKVATHRSKNVHLYRQGEINLILNNEPNSIASYFAAEHGPSVCGMAFRVKDSQKAYNRALELGAQPIHIDTGPMELNLPAIKGIGGAPLYLIDRFGEGSSIYDIDFVYLEGVERNPVGAGLKVIDHLTHNVYRGRMVYWANFYEKLFNFREARYFDIKGEYTGLTSKAMSAPDGMIKIPLNEESSKGAGQIEEFLMQFNGEGIQHVAFLTDDLVKTWDALKKIGMRFMTAPADSYYEMLEGRLPDHGEPVDQLQARGILLDGSSVEGDKRLLLQIFSEQLMGPVFFEFIQRKGDDGFGPHSFKVLFEQMERDQVRRGVLTAD				increase significantly the turnover and the residual turnover	10.0	25.0	35.0	15.0
